Source: the supplement of paper PMC12042874
± gives the uncertainty stated by the source.

Assay: amyloid nucleation score (Sup35N fusion, yeast selection) (log enrichment); library NNK2; higher = more nucleation; inactive = no reads after selection
Outline: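 Using DiMSum, nucleation scores were taken as the log enrichment of output over input reads, centred on the mode score of non-aggregating sequences. The input and output reads came from Illumina sequencing of plasmid inserts, with sequences under 100 input reads excluded. The yeast were psi-negative, expressed Sup35N fused to peptides of 20 random codons, were induced with 100 μM copper sulfate for 24 hours, and were grown 7 days at 30°C on medium lacking adenine and uracil.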

Going from QLFGFGYVLVV to QLGRVSHRVTDRIFWKAYPA, the amyloid nucleation score rises from -1.12 ± 0.78 to 0.353 ± 0.35.

Going from QLNVSLNRLFLCGGSAELPS to QMAINAGRRRRHAEYGLRNS, the amyloid nucleation score falls from 7.55 ± 0.076 to 0.684 ± 0.57.

QMVGWSMYWIKVMRISA and QNIKIW are within error of each other in amyloid nucleation score: 0.105 ± 1.1 for the first, -1.02 ± 0.55 for the second.

QPAVQGITRRKVCWVIMQNA and QRDHWNAALCKVLLLSGLLR are within error of each other in amyloid nucleation score: 0.336 ± 0.46 for the first, 0.057 ± 0.33 for the second.

QRRQVDSVM and QSKYVSDPSPPETR are within error of each other in amyloid nucleation score: 1.27 ± 0.27 for the first, 1.48 ± 0.32 for the second.

QSRDKYLKFRPSLWATEMTW and QSSNLMGL are within error of each other in amyloid nucleation score: -0.127 ± 0.31 for the first, -0.338 ± 0.39 for the second.

QSSYVATWVTLNLGCYFDWK and QSTYCQRRCVC are within error of each other in amyloid nucleation score: 0.284 ± 1.1 for the first, 0.042 ± 0.63 for the second.

First: QSVYMFRKNNDFPRGTAGSQ
Second: QTNGGEGQ
The amyloid nucleation score of the first is lower: -0.883 ± 1.1 for the first, 0.705 ± 0.24 for the second.

Going from QTVTCHNNRYVFRLSTMC to QVSFEFNRLMGCMLKMTMMT, the amyloid nucleation score falls from 0.71 ± 0.41 to -0.308 ± 0.49.

Compared with QWIWSHSNHNSWIPGSGVVD, QWNMRAAQCTTNS is higher in amyloid nucleation score: -1.13 ± 0.76 for the first, 0.722 ± 0.34 for the second.

QYGHCAPDFGSTLLGISST and QYVPVLGPACMQLMRYNCAD are within error of each other in amyloid nucleation score: -0.601 ± 0.39 for the first, -0.177 ± 0.4 for the second.

Compared with QYYVGYLT, RACADGTSEPNAVALCLNAV is higher in amyloid nucleation score: -0.738 ± 0.61 for the first, 0.832 ± 0.43 for the second.

RADTRFVAMGFGCRNVKPAV and RALLW are within error of each other in amyloid nucleation score: -0.296 ± 0.54 for the first, -0.094 ± 1 for the second.

Compared with RAQRLP, RARARHDLRGQRKVLRDRRF is higher in amyloid nucleation score: -0.241 ± 0.55 for the first, 0.849 ± 0.5 for the second.

Going from RARGIV to RARIWALGYSLEEIRRGLED, the amyloid nucleation score rises from -0.664 ± 0.55 to 3.19 ± 0.11.

Going from RAWKSPYCLNTRMSTEGHEY to RAYFTSKMCIRQTWTEKILY, the amyloid nucleation score rises from 0.348 ± 0.48 to 5.13 ± 0.052.

Compared with RCDLWLSYCQPLNVFLYWLV, RCGASSCNRLGPPMLNNRAM is lower in amyloid nucleation score: 0.313 ± 0.65 for the first, -1.6 ± 0.75 for the second.

Going from RCGEVRYPCTDVYILGFRSV to RCGSHMNLRYISAR, the amyloid nucleation score rises from -0.437 ± 0.63 to 4.398 ± 0.04.

First: RCPRSKLVIMDRASVLEGGR
Second: RCSDRKRRFSYSNWYGHGYG
The amyloid nucleation score of the first is higher: 0.559 ± 0.32 for the first, -0.448 ± 0.48 for the second.

RCTGVMPV and RCVSRTR are within error of each other in amyloid nucleation score: -0.072 ± 1.1 for the first, 0.147 ± 1.1 for the second.

First: RCYVFKLSFGDTQCELFRIT
Second: RDARNKFCDGLTVGILGACM
The amyloid nucleation score of the first is higher: 6.406 ± 0.049 for the first, -0.368 ± 0.29 for the second.

Going from RDFVE to RDHLFCG, the amyloid nucleation score rises from -0.386 ± 0.56 to 0.654 ± 0.16.

First: RDIFILSLLDRMSEGTKRIR
Second: RDIGKYRMYDLTKVRAITLT
The amyloid nucleation score of the first is higher: 3.86 ± 0.076 for the first, -0.353 ± 0.35 for the second.

Going from RDLARTMI to RDMHLGRTEFVARYWELFRY, the amyloid nucleation score falls from 1.67 ± 0.34 to -0.473 ± 0.78.

Compared with RDMWKVNHGNTACIGSYRSV, RDRRASYLVVASPTAGLHMV is higher in amyloid nucleation score: 0.671 ± 0.35 for the first, 3.34 ± 0.078 for the second.

Going from RDSVCMTRLDMGLDCEWVFG to REAMTCIFDLKYAGLASVWW, the amyloid nucleation score falls from 1.57 ± 0.36 to -0.532 ± 1.

First: RERVFIGNGWTRLSRARGQA
Second: REVLWCLPDQGELPGGVTFG
The amyloid nucleation score of the first is lower: -1.15 ± 0.62 for the first, 2.44 ± 0.08 for the second.

Going from REVTNLYVVGGSDCTLIGGM to RFCGVVLSHSSD, the amyloid nucleation score rises from 3.75 ± 0.097 to 7.913 ± 0.03.

RFDWVA and RFFGLAKMRMLVKCQ are within error of each other in amyloid nucleation score: -0.038 ± 0.45 for the first, 0.043 ± 0.65 for the second.

RFFVYWFVFLCRLNGCVLWT and RFGLGINLLIGVRLLCLALL are within error of each other in amyloid nucleation score: -0.689 ± 0.4 for the first, 0.043 ± 1 for the second.

First: RFGRSQVRAKCRVDDDRWIR
Second: RFICSAPAVPILIICWS
The amyloid nucleation score of the first is higher: 4.63 ± 0.071 for the first, -1.65 ± 0.76 for the second.

First: RFLLVRSCQAISNRGNGLRE
Second: RFLSYTSCLEMIVFCGRVQG
The amyloid nucleation score of the first is higher: 5.08 ± 0.042 for the first, 0.207 ± 0.23 for the second.

RFMVSRYFISGPIIVSC and RFPLGCKMSVTGPFHMTHHA are within error of each other in amyloid nucleation score: 0.284 ± 1.1 for the first, 1.29 ± 0.38 for the second.

Going from RFYRIDAKVAYQWAYQF to RGCMEVWVLYQSNALSM, the amyloid nucleation score rises from 3.94 ± 0.12 to 4.18 ± 0.071.

Compared with RGDHDCW, RGDSATLVGCNVVMGRRFSL is higher in amyloid nucleation score: 0.77 ± 0.32 for the first, 4.32 ± 0.099 for the second.

RGFNGSLR and RGFRGRFVFGRT are within error of each other in amyloid nucleation score: 0.552 ± 0.4 for the first, -0.183 ± 0.49 for the second.

First: RGFWRVFGCRHIVATPFEVE
Second: RGGSTPYYNWSAGDGWKKDK
The amyloid nucleation score of the first is higher: 8.675 ± 0.058 for the first, 2.86 ± 0.065 for the second.

Compared with RGHSALFTNFCGTMCGVVDG, RGINVGGWLSLGFTGAVHSL is higher in amyloid nucleation score: 0.148 ± 1 for the first, 3.4 ± 0.12 for the second.

RGKSKYSRLGWPGNLEHKGL showed an amyloid nucleation score of 0.388 ± 0.46.

With QMSLAGRG the amyloid nucleation score was “inactive”.
For QSAFNN, the amyloid nucleation score was “inactive”.
With QYVLLTLCVRIIHGSND the amyloid nucleation score was “inactive”.
For RAWETNFRVTTLDCNNYSSS, the amyloid nucleation score was “inactive”.
With RFFFYGLGMFYIETFYLLWF the amyloid nucleation score was “inactive”.
In the case of RFSYFFHVLMRGRNYVQATG, the amyloid nucleation score is reported as “inactive”.
In the case of RGCGFRIDVGKRWRNRIKSV, the amyloid nucleation score is reported as “inactive”.
For RGLLHFIFVITQYKGIYSNV, the amyloid nucleation score was “inactive”.
